# Legend:
# EPHB2 = EPHB2 (UniProt P29323); assay: phosphorylation enrichment, bacterial display (enrichment ratio); higher = better substrate or ligand; peptides without Tyr show the background
# Fer (mouse) = assay: as above
# EPHB1 = EPHB1 (UniProt P54762); assay: as above
# Fes = Fes (UniProt P07332); assay: as above
# Fyn = Fyn (UniProt P06241); assay: as above
# Jak2 = Jak2 (UniProt O60674); assay: as above
# AncSZ = assay: as above
# MERTK = MERTK (UniProt Q12866); assay: as above
# FGFR3 = FGFR3 (UniProt P22607); assay: as above
# c-Abl (mouse) = assay: as above
# FGFR1 = FGFR1 (UniProt P11362); assay: as above
# Hck = Hck (UniProt P08631); assay: as above
# c-Src = assay: as above
# SHP2-C SH2 = assay: SH2 binding enrichment of the phosphorylated peptide, bacterial display (enrichment ratio); higher = better substrate or ligand; peptides without Tyr show the background
# c-Src SH2 = assay: as above
# Grb2 SH2 = Grb2 SH2 (UniProt P62993); assay: as above
# 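Wherever SH2 binding enrichment of the phosphorylated peptide, bacterial display is given: peptide library displayed on the E. coli surface as eCPX fusions, selected cells deep-sequenced, score is each peptide's frequency after selection divided by its frequency in the input.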
# 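Wherever phosphorylation enrichment, bacterial display is given: 11-residue human phosphosite peptides and single-mutation variants displayed on the E. coli surface, counted by deep sequencing, each peptide's frequency after selection divided by its frequency in the unselected input library; frequency after pTyr selection over input frequency; kinase dosed for 20-30% of maximal phosphorylation in three min.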
# Sequence of FGFR3 (P22607 whole entry, looked up): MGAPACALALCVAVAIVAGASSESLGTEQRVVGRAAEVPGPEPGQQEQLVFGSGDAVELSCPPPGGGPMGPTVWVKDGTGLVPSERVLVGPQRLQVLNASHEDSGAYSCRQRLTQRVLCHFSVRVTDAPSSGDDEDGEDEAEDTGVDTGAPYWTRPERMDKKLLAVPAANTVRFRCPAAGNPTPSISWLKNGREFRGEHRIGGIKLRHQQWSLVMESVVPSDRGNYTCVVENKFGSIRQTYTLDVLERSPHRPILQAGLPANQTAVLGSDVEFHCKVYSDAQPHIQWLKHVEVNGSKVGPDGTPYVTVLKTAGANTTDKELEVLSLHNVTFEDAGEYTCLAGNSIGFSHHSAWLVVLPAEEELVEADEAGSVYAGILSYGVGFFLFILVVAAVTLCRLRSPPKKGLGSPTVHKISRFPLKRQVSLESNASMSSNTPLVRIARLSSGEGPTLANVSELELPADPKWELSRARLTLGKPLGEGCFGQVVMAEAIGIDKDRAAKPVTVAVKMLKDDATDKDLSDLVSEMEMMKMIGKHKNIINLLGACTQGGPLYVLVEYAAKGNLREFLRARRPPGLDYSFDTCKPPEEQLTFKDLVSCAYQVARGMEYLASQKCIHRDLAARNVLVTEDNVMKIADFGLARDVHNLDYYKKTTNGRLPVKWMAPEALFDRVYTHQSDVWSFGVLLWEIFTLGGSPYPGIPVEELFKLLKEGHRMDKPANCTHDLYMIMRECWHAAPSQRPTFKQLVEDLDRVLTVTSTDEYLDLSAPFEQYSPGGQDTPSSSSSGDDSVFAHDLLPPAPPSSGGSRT
# Sequence of Fes (P07332 whole entry, looked up): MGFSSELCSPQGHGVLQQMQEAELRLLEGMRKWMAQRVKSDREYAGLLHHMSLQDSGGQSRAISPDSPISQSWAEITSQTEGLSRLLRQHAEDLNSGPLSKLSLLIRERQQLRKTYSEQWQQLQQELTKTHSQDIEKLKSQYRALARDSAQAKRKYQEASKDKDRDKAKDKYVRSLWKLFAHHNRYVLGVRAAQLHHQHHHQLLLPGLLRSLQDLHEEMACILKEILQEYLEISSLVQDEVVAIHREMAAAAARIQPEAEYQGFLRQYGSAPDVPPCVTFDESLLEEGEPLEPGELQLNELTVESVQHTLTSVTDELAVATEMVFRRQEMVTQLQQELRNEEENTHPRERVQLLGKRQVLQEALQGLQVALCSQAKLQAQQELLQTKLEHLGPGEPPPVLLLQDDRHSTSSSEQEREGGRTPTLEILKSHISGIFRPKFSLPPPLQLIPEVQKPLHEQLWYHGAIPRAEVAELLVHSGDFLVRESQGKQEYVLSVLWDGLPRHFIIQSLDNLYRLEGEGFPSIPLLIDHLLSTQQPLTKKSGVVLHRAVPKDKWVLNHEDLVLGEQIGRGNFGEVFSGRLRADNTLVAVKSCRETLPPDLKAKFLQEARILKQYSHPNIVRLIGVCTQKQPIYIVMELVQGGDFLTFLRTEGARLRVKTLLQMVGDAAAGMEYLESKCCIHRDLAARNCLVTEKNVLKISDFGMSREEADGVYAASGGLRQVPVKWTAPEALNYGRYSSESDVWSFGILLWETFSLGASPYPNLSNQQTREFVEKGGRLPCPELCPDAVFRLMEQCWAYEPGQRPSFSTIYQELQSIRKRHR
# Sequence of Hck (P08631 whole entry, looked up): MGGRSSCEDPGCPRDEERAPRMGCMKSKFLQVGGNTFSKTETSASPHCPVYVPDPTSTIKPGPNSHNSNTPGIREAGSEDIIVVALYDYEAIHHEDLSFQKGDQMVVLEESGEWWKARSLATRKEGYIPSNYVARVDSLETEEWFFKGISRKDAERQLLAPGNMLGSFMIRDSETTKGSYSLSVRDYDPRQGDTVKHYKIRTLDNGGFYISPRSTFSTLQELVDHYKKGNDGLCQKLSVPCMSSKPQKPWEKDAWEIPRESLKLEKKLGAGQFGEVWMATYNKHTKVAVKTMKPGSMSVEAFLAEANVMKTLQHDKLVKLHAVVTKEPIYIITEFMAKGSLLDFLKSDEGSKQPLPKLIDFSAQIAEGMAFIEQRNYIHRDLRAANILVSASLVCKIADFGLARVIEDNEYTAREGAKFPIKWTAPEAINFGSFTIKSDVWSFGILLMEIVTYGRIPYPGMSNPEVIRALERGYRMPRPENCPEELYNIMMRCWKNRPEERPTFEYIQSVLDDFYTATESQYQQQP
# Sequence of EPHB2 (P29323 whole entry, looked up): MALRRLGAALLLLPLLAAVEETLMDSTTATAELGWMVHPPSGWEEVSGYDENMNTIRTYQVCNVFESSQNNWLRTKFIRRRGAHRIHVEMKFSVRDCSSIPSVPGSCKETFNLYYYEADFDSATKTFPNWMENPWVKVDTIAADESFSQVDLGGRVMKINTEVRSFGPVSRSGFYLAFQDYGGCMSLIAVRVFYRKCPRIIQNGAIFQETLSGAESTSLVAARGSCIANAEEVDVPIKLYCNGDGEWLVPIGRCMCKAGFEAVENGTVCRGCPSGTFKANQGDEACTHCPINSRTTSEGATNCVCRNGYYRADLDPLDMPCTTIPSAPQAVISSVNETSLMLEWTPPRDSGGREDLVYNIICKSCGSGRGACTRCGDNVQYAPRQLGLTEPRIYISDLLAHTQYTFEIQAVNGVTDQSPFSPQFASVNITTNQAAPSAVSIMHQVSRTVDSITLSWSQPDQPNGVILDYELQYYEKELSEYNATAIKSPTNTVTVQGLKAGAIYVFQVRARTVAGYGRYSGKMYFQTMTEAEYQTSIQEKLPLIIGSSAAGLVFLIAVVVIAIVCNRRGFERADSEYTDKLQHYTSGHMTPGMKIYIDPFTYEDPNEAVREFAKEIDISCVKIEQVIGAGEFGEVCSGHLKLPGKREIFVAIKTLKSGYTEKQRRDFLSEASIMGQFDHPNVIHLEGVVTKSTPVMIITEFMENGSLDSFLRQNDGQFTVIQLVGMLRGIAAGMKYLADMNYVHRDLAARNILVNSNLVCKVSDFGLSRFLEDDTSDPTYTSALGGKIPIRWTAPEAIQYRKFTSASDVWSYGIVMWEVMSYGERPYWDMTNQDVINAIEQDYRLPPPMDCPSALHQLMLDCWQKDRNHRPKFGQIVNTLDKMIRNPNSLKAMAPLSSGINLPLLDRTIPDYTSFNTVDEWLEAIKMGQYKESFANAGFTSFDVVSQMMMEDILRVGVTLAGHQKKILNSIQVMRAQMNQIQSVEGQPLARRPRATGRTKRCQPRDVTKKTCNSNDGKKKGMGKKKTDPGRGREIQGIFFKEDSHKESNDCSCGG
# Sequence of Jak2 (O60674 whole entry, looked up): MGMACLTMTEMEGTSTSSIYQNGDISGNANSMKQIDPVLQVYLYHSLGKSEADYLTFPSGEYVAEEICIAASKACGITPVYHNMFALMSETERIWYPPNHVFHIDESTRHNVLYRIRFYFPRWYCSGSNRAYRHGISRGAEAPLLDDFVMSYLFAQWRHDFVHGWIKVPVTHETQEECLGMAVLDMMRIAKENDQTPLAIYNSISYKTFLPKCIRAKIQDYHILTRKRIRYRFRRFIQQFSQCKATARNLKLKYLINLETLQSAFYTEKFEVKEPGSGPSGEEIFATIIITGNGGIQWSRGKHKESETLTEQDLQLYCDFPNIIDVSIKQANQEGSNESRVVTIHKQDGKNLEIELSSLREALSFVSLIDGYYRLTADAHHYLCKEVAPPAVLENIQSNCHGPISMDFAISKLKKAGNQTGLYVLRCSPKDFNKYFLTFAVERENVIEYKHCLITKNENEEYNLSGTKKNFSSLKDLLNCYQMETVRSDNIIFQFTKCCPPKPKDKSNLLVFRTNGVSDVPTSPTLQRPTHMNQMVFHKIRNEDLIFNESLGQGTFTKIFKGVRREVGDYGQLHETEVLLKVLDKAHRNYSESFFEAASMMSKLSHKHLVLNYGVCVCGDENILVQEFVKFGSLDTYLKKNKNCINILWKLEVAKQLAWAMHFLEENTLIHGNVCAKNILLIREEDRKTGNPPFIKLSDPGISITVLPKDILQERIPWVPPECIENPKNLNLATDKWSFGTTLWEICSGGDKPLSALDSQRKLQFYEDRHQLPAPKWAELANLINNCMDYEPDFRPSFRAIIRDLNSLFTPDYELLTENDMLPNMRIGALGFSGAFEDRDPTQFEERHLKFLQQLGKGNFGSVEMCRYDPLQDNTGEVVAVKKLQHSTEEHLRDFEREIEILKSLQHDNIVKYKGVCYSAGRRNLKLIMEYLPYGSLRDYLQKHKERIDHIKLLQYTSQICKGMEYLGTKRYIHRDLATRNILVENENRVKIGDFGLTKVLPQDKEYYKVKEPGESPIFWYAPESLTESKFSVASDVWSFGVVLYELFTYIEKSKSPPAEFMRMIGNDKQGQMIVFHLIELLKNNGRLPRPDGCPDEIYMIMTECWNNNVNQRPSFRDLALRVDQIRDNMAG
# Sequence of Fyn (P06241 whole entry, looked up): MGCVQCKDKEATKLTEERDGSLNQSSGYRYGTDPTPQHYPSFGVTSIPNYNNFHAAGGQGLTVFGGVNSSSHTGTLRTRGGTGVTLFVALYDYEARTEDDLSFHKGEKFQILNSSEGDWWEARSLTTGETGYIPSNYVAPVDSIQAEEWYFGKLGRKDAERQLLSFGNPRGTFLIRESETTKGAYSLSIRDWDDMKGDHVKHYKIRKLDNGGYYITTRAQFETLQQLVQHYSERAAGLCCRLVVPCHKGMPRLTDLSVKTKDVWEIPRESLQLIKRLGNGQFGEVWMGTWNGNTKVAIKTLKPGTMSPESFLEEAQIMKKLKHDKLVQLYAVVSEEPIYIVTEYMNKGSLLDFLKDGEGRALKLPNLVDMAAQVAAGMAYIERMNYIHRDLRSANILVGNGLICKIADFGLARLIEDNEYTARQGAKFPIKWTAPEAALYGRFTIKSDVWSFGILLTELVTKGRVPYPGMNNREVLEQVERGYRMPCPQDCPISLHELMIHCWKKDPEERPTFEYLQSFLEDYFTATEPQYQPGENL
Sequence,SH2 binding enrichment (SHP2-C SH2),SH2 binding enrichment (c-Src SH2),SH2 binding enrichment (Grb2 SH2),phosphorylation enrichment (EPHB2),phosphorylation enrichment (Fer (mouse)),phosphorylation enrichment (EPHB1),phosphorylation enrichment (Fes),phosphorylation enrichment (Fyn),phosphorylation enrichment (Jak2),phosphorylation enrichment (AncSZ),phosphorylation enrichment (MERTK),phosphorylation enrichment (FGFR3),phosphorylation enrichment (c-Abl (mouse)),phosphorylation enrichment (FGFR1),phosphorylation enrichment (Hck),phosphorylation enrichment (c-Src)
ALARKYHGGGG [HBB_Y146_H144R],0.549,0.536,0.8,0.307,0.444,0.418,0.408,0.365,0.507,0.372,0.337,0.33,0.407,0.353,0.317,0.435
ALHRPYGCDVE [ABL2_Y80],0.72,0.582,1.01,0.456,0.538,0.59,0.782,0.447,0.541,0.871,0.357,0.531,0.571,0.412,0.379,0.324
ALLTKYSRSSM [DSCC1_Y374_H376R],0.615,0.589,0.847,0.535,0.442,0.505,0.744,0.465,0.816,0.617,0.552,0.554,0.697,0.579,0.384,0.524
ALMGLYHGQVL [HADHA_Y343],0.89,0.647,1.15,0.649,0.678,0.545,0.823,0.728,0.596,0.605,0.648,0.641,0.679,0.625,1.64,1.28
ARAFIYAIIPA [ACKtide_2014],0.777,0.764,1.03,2.22,0.81,5.28,1.46,2.65,1.86,1.4,6.87,1.1,2.27,1.07,4.01,3.54
ARGMEYLASKK [FGFR1_Y613],0.513,0.456,0.529,0.367,0.324,0.356,0.566,0.364,0.662,0.61,0.354,0.409,0.506,0.285,0.367,0.403
TDIVAYSGRVQ [SPTBN2_Y477],,,,2.04,0.264,0.369,0.196,1.05,1.48,0.857,0.885,1.05,1.13,0.214,0.407,1.05

# Second part, led by results:
SH2 binding enrichment (SHP2-C SH2),SH2 binding enrichment (c-Src SH2),SH2 binding enrichment (Grb2 SH2),Sequence,phosphorylation enrichment (EPHB2),phosphorylation enrichment (Fer (mouse)),phosphorylation enrichment (EPHB1),phosphorylation enrichment (Fes),phosphorylation enrichment (Fyn),phosphorylation enrichment (Jak2),phosphorylation enrichment (AncSZ),phosphorylation enrichment (MERTK),phosphorylation enrichment (FGFR3),phosphorylation enrichment (c-Abl (mouse)),phosphorylation enrichment (FGFR1),phosphorylation enrichment (Hck),phosphorylation enrichment (c-Src)
1.62,0.97,1.31,AKLVQYFMEHH [PTPN11_Y80_E76K_YF],0.505,0.445,0.462,0.853,0.374,0.63,0.729,0.362,0.684,0.546,0.496,0.441,0.412
0.48,0.446,1,ALECLYHREKR [TEKT5_Y195],0.675,0.451,0.618,1.15,0.512,0.884,1.26,0.406,0.734,0.927,0.484,0.583,0.571
0.814,14.8,0.817,ALEHKYWALGQ [MAP1A_Y1555_Q1553H],0.539,0.492,0.546,0.966,0.801,0.709,0.859,0.596,0.582,0.652,0.601,0.621,1.39
0.573,0.571,0.773,ALIKAYDKAVA [SMN1_Y43],0.626,0.282,0.546,0.578,0.458,0.532,0.563,0.491,0.526,0.461,0.444,0.29,0.353
1.39,0.793,1.85,ALVFLSFCIIF [SIGLEC12_Y494_Y494S],0.489,0.39,0.329,0.865,0.496,0.871,1.05,0.449,0.603,0.974,0.45,0.466,0.439
0.648,0.372,0.84,APRKVYDTRDD [ZFPL1_Y215],0.44,0.403,0.45,0.736,0.408,0.614,0.641,0.372,0.581,0.485,0.427,0.493,0.422
0.561,0.518,0.882,APTSGYREFVH [IL4R_Y575_Q576R],0.342,0.485,0.378,0.561,0.422,0.441,0.681,0.483,0.474,0.508,0.462,0.379,0.397
1.54,0.405,0.891,AQESNYRLLRQ [SLC20A2_Y377_R382Q],0.534,0.479,0.785,0.737,0.391,0.754,0.616,0.488,0.445,0.634,0.411,0.478,0.397
0.607,0.874,0.735,ARIVDYNIIGW [MYH7_Y588_G584R],0.662,0.406,0.542,0.846,0.545,0.671,0.808,0.454,0.839,0.561,0.81,0.56,0.445
1.03,0.6,1.31,ASNFNYFFHRE [KCNA1_Y413_V408A_YF],0.556,0.415,0.511,1.01,0.372,0.805,1.03,0.453,0.748,0.571,0.506,0.654,0.43

# — the supplement of paper PMC10065799, “High-throughput profiling of sequence recognition by tyrosine kinases and SH2 domains using bacterial peptide display” (eLife, 2023)
